Test results reported in the supplement of paper PMC5998384.

Experiments:
HeLa Kyoto [1] = assay: solubility in G1/S (NP-40 vs SDS abundance) (log2 ratio); higher = more soluble; conditions: cell cycle stage: G1/S
HeLa Kyoto [2] = assay: melting temperature (median over replicates), in situ; higher = more thermally stable
HeLa Kyoto [3] = assay: solubility change mitosis vs G1/S (difference of NP-40 vs SDS log2 ratios) (log2 ratio difference); higher = more soluble in mitosis
HeLa Kyoto [4] = assay: thermal stability score vs G1/S (z-score of summed log2 fold changes over temperatures); higher = more thermally stable than in G1/S
[5] = cell cycle stage: early G1 (4.5 h after nocodazole release)
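For melting temperature (median over replicates), in situ in this document: HeLa Kyoto cells synchronized by double thymidine or nocodazole block, proteins quantified by TMT10plex mass spectrometry, three independent biological replicates.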
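For solubility change mitosis vs G1/S (difference of NP-40 vs SDS log2 ratios) in this document: synchronized HeLa Kyoto cells (double thymidine block for G1/S, nocodazole release for mitosis), protein amounts in NP-40 versus SDS lysates quantified by mass spectrometry, three biological replicates.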
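For solubility in G1/S (NP-40 vs SDS abundance) in this document: HeLa Kyoto cells arrested at G1/S by double thymidine block, proteins quantified by TMT10plex mass spectrometry in mild NP-40 versus SDS extracts, three biological replicates.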
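For thermal stability score vs G1/S (z-score of summed log2 fold changes over temperatures) in this document: synchronized HeLa Kyoto cells, proteins quantified by TMT10plex mass spectrometry, three biological replicates, mitosis taken 0.5 h after nocodazole release, G1/S directly after double thymidine block.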

Row | Sequence | solubility in G1/S (log2) (HeLa Kyoto [1]) | melting temperature (HeLa Kyoto [2]; cell cycle stage: G1/S) | melting temperature (HeLa Kyoto [2]; cell cycle stage: mitosis) | solubility change mitosis (log2) (HeLa Kyoto [3]) | thermal stability score (HeLa Kyoto [4]; [5]) | thermal stability score (HeLa Kyoto [4]; cell cycle stage: mitosis)
1 | MSRSVLQPSQQKLAEKLTILNDRGVGMLTRLYNIKKACGDPKAKPSYLIDKNLESAVKFIVRKFPAVETRNNNQQLAQLQKEKSEILKNLALYYFTFVDVMEFKDHVCELLNTIDVCQVFFDITVNFDLTKNYLDLIITYTTLMILLSRIEERKAIIGLYNYAHEMTHGASDREYPRLGQMIVDYENPLKKMMEEFVPHSKSLSDALISLQMVYPRRNLSADQWRNAQLLSLISAPSTMLNPAQSDTMPCEYLSLDAMEKWIIFGFILCHGILNTDATALNLWKLALQSSSCLSLFRDEVFHIHKAAEDLFVNIRGYNKRINDIRECKEAAVSHAGSMHRERRKFLRSALKELATVLSDQPGLLGPKALFVFMALSFARDEIIWLLRHADNMPKKSADDFIDKHIAELIFYMEELRAHVRKYGPVMQRYYVQYLSGFDAVVLNELVQNLSVCPEDESIIMSSFVNTMTSLSVKQVEDGEVFDFRGMRLDWFRLQAYTSVSKASLGLADHRELGKMMNTIIFHTKMVDSLVEMLVETSDLSIFCFYSRAFEKMFQQCLELPSQSRYSIAFPLLCTHFMSCTHELCPEERHHIGDRSLSLCNMFLDEMAKQARNLITDICTEQCTLSDQLLPKHCAKTISQAVNKKSKKQTGKKGEPEREKPGVESMRKNRLVVTNLDKLHTALSELCFSINYVPNMVVWEHTFTPREYLTSHLEIRFTKSIVGMTMYNQATQEIAKPSELLTSVRAYMTVLQSIENYVQIDITRVFNNVLLQQTQHLDSHGEPTITSLYTNWYLETLLRQVSNGHIAYFPAMKAFVNLPTENELTFNAEEYSDISEMRSLSELLGPYGMKFLSESLMWHISSQVAELKKLVVENVDVLTQMRTSFDKPDQMAALFKRLSSVDSVLKRMTIIGVILSFRSLAQEALRDVLSYHIPFLVSSIEDFKDHIPRETDMKVAMNVYELSSAAGLPCEIDPALVVALSSQKSENISPEEEYKIACLLMVFVAVSLPTLASNVMSQYSPAIEGHCNNIHCLAKAINQIAAALFTIHKGSIEDRLKEFLALASSSLLKIGQETDKTTTRNRESVYLLLDMIVQESPFLTMDLLESCFPYVLLRNAYHAVYKQSVTSSA [NCKAP1] | -0.214 | 51.5 °C | 51.1 °C | -0.159 | -0.278 | -0.186
2 | MSRYGRYGGETKVYVGNLGTGAGKGELERAFSYYGPLRTVWIARNPPGFAFVEFEDPRDAEDAVRGLDGKVICGSRVRVELSTGMPRRSRFDRPPARRPFDPNDRCYECGEKGHYAYDCHRYSRRRRSRSRSRSHSRSRGRRYSRSRSRSRGRRSRSASPRRSRSISLRRSRSASLRRSRSGSIKGSRYFQSPSRSRSRSRSISRPRSSRSKSRSPSPKRSRSPSGSPRRSASPERMD [SRSF7] | -1.02 | 50.4 °C | 50.5 °C | 0.665 | -4.9 | -9.15
3 | MSSAPRRPAKGADSFCTPEPESLGPGTPGFPEQEEDELHRTLGVERFEEILQEAGSRGGEEPGRSYGEEDFEYHRQSSHHIHHPLSTHLPPDARRRKTPQGPGRKPRRRPGASPTGETPTIEEGEEDEDEASEAEGARALTQPSPVSTPSSVQFFLQEDDSADRKAERTSPSSPAPLPHQEATPRASKGAQAGTQVEEAEAEAVAVASGTAGGDDGGASGRPLPKAQPGHRSYNLQERRRIGSMTGAEQALLPRVPTDEIEAQTLATADLDLMKSHRFEDVPGVRRHLVRKNAKGSTQSGREGREPGPTPRARPRAPHKPHEVFVELNELLLDKNQEPQWRETARWIKFEEDVEEETERWGKPHVASLSFRSLLELRRTLAHGAVLLDLDQQTLPGVAHQVVEQMVISDQIKAEDRANVLRALLLKHSHPSDEKDFSFPRNISAGSLGSLLGHHHGQGAESDPHVTEPLMGGVPETRLEVERERELPPPAPPAGITRSKSKHELKLLEKIPENAEATVVLVGCVEFLSRPTMAFVRLREAVELDAVLEVPVPVRFLFLLLGPSSANMDYHEIGRSISTLMSDKQFHEAAYLADEREDLLTAINAFLDCSVVLPPSEVQGEELLRSVAHFQRQMLKKREEQGRLLPTGAGLEPKSAQDKALLQMVEAAGAAEDDPLRRTGRPFGGLIRDVRRRYPHYLSDFRDALDPQCLAAVIFIYFAALSPAITFGGLLGEKTQDLIGVSELIMSTALQGVVFCLLGAQPLLVIGFSGPLLVFEEAFFSFCSSNHLEYLVGRVWIGFWLVFLALLMVALEGSFLVRFVSRFTQEIFAFLISLIFIYETFYKLVKIFQEHPLHGCSASNSSEVDGGENMTWAGARPTLGPGNRSLAGQSGQGKPRGQPNTALLSLVLMAGTFFIAFFLRKFKNSRFFPGRIRRVIGDFGVPIAILIMVLVDYSIEDTYTQKLSVPSGFSVTAPEKRGWVINPLGEKSPFPVWMMVASLLPAILVFILIFMETQITTLIISKKERMLQKGSGFHLDLLLIVAMGGICALFGLPWLAAATVRSVTHANALTVMSKAVAPGDKPKIQEVKEQRVTGLLVALLVGLSIVIGDLLRQIPLAVLFGIFLYMGVTSLNGIQFYERLHLLLMPPKHHPDVTYVKKVRTLRMHLFTALQLLCLALLWAVMSTAASLAFPFILILTVPLRMVVLTRIFTDREMKCLDANEAEPVFDEREGVDEYNEMPMPV [SLC4A2] | 0.054 | 53.9 °C | 54.1 °C | 0.0677 | 0.464 | -0.912
4 | MSSASGLRRGHPAGGEENMTETDAFYKREMFDPAEKYKMDHRRRGIALIFNHERFFWHLTLPERRGTCADRDNLTRRFSDLGFEVKCFNDLKAEELLLKIHEVSTVSHADADCFVCVFLSHGEGNHIYAYDAKIEIQTLTGLFKGDKCHSLVGKPKIFIIQACRGNQHDVPVIPLDVVDNQTEKLDTNITEVDAASVYTLPAGADFLMCYSVAEGYYSHRETVNGSWYIQDLCEMLGKYGSSLEFTELLTLVNRKVSQRRVDFCKDPSAIGKKQVPCFASMLTKKLHFFPKSN [CASP6] | -0.374 | 54.4 °C | 56.6 °C | -0.176 | -0.607 | -1.03
5 | MSSASVTAFEKEHLWMYLQALGFEPGPATIACGKIVSHTHLGVNMFDKLNRDAFHIISYFLFQVLDQSLTKEVFKFCWPPFDQKSDTEFRKHCCEWIKRISGECGSSFPQVVGSLFLSPGGPKFIHLMYHFARFVAMKYIKSNSKNSSHHFVETFNIKPQDLHKCIARCHFARSRFLQILQRQDCVTQKYQENAQLSVKQVRNLRSECIGLENQIKKMEPYDDHSNMEEKIQKVRSLWASVNETLMFLEKEREVVSSVLSLVNQYALDGTNVAINIPRLLLDKIEKQMFQLHIGNVYEAGKLNLLTVIQLLNEVLKVMKYERCQADQARLTVDLHYLEKETKFQKERLSDLKHMRYRIKDDLTTIRHSVVEKQGEWHKKWKEFLGLSPFSLIKGWTPSVDLLPPMSPLSFDPASEEVYAKSILCQYPASLPDAHKQHNQENGCRGDSDTLGALHDLANSPASFLSQSVSSSDRNSVTVLEKDTKMGTPKEKNEAISKKIPEFEVENSPLSDVAKNTESSAFGGSLPAKKSDPFQKEQDHLVEEVARAVLSDSPQLSEGKEIKLEELIDSLGSNPFLTRNQIPRTPENLITEIRSSWRKAIEMEENRTKEPIQMDAEHREVLPESLPVLHNQREFSMADFLLETTVSDFGQSHLTEEKVISDCECVPQKHVLTSHIDEPPTQNQSDLLNKKVICKQDLECLAFTKLSETSRMETFSPAVGNRIDVMGGSEEEFMKILDHLEVSCNKPSTNKTMLWNSFQISSGISSKSFKDNDFGILHETLPEEVGHLSFNSSSSSEANFKLEPNSPMHGGTLLEDVVGGRQTTPESDFNLQALRSRYEALKKSLSKKREESYLSNSQTPERHKPELSPTPQNVQTDDTLNFLDTCDLHTEHIKPSLRTSIGERKRSLSPLIKFSPVEQRLRTTIACSLGELPNLKEEDILNKSLDAKEPPSDLTR [HAUS6] | -0.0247 | 48.3 °C | 49.1 °C | -0.0199 | 0.745 | 1.14
6 | MSSCSRVALVTGANRGIGLAIARELCRQFSGDVVLTARDVARGQAAVQQLQAEGLSPRFHQLDIDDLQSIRALRDFLRKEYGGLNVLVNNAAVAFKSDDPMPFDIKAEMTLKTNFFATRNMCNELLPIMKPHGRVVNISSLQCLRAFENCSEDLQERFHSETLTEGDLVDLMKKFVEDTKNEVHEREGWPNSPYGVSKLGVTVLSRILARRLDEKRKADRILVNACCPGPVKTDMDGKDSIRTVEEGAETPVYLALLPPDATEPQGQLVHDKVVQNW [CBR3] | 0.562 | 51.4 °C | 52.4 °C | -0.0459 | -0.991 | 0.085
7 | MSSDFEGYEQDFAVLTAEITSKIARVPRLPPDEKKQMVANVEKQLEEAKELLEQMDLEVREIPPQSRGMYSNRMRSYKQEMGKLETDFKRSRIAYSDEVRNELLGDDGNSSENQRAHLLDNTERLERSSRRLEAGYQIAVETEQIGQEMLENLSHDREKIQRARERLRETDANLGKSSRILTGMLRRIIQNRILLVILGIIVVITILMAITFSVRRH [VTI1A] | 0.0215 | 55.6 °C | 55.8 °C | -0.165 | -4.18 | -3.25
8 | MSSESSKKRKPKVIRSDGAPAEGKRNRSDTEQEGKYYSEEAEVDLRDPGRDYELYKYTCQELQRLMAEIQDLKSRGGKDVAIEIEERRIQSCVHFMTLKKLNRLAHIRLKKGRDQTHEAKQKVDAYHLQLQNLLYEVMHLQKEITKCLEFKSKHEEIDLVSLEEFYKEAPPDISKAEVTMGDPHQQTLARLDWELEQRKRLAEKYRECLSNKEKILKEIEVKKEYLSSLQPRLNSIMQASLPVQEYLFMPFDQAHKQYETARHLPPPLYVLFVQATAYGQACDKTLSVAIEGSVDEAKALFKPPEDSQDDESDSDAEEEQTTKRRRPTLGVQLDDKRKEMLKRHPLSVMLDLKCKDDSVLHLTFYYLMNLNIMTVKAKVTTAMELITPISAGDLLSPDSVLSCLYPGDHGKKTPNPANQYQFDKVGILTLSDYVLELGHPYLWVQKLGGLHFPKEQPQQTVIADHSLSASHMETTMKLLKTRVQSRLALHKQFASLEHGIVPVTSDCQYLFPAKVVSRLVKWVTVAHEDYMELHFTKDIVDAGLAGDTNLYYMALIERGTAKLQAAVVLNPGYSSIPPVFQLCLNWKGEKTNSNDDNIRAMEGEVNVCYKELCGPWPSHQLLTNQLQRLCVLLDVYLETESHDDSVEGPKEFPQEKMCLRLFRGPSRMKPFKYNHPQGFFSHR [THOC5] | -0.323 | 51.4 °C | 50.4 °C | 0.281 | 0.533 | 0.546
9 | MSSFGAGKTKEVIFSVEDGSVKMFLRGRPVPMMIPDELAPTYSLDTRSELPSCRLKLEWVYGYRGRDCRANLYLLPTGEIVYFVASVAVLYSVEEQRQRHYLGHNDDIKCLAIHPDMVTIATGQVAGTTKEGKPLPPHVRIWDSVSLSTLHVLGLGVFDRAVCCVGFSKSNGGNLLCAVDESNDHMLSVWDWAKETKVVDVKCSNEAVLVATFHPTDPTVLITCGKSHIYFWTLEGGSLSKRQGLFEKHEKPKYVLCVTFLEGGDVVTGDSGGNLYVWGKGGNRITQAVLGAHDGGVFGLCALRDGTLVSGGGRDRRVVLWGSDYSKLQEVEVPEDFGPVRTVAEGHGDTLYVGTTRNSILQGSVHTGFSLLVQGHVEELWGLATHPSRAQFVTCGQDKLVHLWSSDSHQPLWSRIIEDPARSAGFHPSGSVLAVGTVTGRWLLLDTETHDLVAIHTDGNEQISVVSFSPDGAYLAVGSHDNLVYVYTVDQGGRKVSRLGKCSGHSSFITHLDWAQDSSCFVTNSGDYEILYWDPATCKQITSADAVRNMEWATATCVLGFGVFGIWSEGADGTDINAVARSHDGKLLASADDFGKVHLFSYPCCQPRALSHKYGGHSSHVTNVAFLWDDSMALTTGGKDTSVLQWRVV [EML2] | -0.16 | 53.1 °C | 53.4 °C | -0.207 | -0.964 | -1.37
10 | MSSGAASGTGRGRPRGGGPGPGDPPPSETHKLVVVGGGGVGKSALTIQFIQSYFVSDYDPTIEDSYTKICSVDGIPARLDILDTAGQEEFGAMREQYMRAGHGFLLVFAINDRQSFNEVGKLFTQILRVKDRDDFPVVLVGNKADLESQRQVPRSEASAFGASHHVAYFEASAKLRLNVDEAFEQLVRAVRKYQEQELPPSPPSAPRKKGGGCPCVLL [RRAS] | 0.28 | 56.1 °C | 56 °C | -0.0644 | 0.904 | -0.296
